Measurements published in US20220213456.

Key:
Experiment in all cases: cleavage_in_vitro
[1] = test system: T1, OMNI-35 (Bartonella apis); conditions: TXTL; PAM NRR; V1, V2 tested
T1 sequence: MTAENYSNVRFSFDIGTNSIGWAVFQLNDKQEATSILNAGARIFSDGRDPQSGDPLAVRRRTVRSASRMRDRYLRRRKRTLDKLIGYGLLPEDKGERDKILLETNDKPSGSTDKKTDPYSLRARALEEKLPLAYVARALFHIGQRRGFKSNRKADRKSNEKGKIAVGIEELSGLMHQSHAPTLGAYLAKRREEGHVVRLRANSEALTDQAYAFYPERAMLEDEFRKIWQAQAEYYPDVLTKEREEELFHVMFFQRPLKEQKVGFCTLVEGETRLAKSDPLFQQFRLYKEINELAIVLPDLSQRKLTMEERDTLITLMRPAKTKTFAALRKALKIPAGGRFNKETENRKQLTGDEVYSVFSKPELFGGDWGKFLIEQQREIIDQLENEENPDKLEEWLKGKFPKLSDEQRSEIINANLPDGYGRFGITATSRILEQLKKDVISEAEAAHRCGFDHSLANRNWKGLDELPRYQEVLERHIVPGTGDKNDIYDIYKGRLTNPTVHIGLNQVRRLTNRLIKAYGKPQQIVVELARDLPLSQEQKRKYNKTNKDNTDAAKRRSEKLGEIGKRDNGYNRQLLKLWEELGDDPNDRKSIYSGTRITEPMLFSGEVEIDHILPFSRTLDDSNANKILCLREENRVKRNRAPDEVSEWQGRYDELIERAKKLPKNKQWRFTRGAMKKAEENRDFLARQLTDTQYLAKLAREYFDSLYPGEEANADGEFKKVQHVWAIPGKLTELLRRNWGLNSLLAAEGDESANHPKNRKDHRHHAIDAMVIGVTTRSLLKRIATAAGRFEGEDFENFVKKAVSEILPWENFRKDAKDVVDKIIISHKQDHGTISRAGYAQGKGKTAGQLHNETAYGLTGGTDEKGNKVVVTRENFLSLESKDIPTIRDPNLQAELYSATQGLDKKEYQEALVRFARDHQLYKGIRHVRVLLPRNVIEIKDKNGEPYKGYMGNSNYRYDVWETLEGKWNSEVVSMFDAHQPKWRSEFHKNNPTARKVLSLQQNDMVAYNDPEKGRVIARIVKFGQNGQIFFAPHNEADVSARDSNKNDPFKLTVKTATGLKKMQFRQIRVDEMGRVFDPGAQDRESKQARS

[2] = test system: T2, OMNI-34 (Alistipes sp. An54); conditions: TXTL; PAM NRNNNNAA; sgRNA V1-V3 tested
T2 sequence: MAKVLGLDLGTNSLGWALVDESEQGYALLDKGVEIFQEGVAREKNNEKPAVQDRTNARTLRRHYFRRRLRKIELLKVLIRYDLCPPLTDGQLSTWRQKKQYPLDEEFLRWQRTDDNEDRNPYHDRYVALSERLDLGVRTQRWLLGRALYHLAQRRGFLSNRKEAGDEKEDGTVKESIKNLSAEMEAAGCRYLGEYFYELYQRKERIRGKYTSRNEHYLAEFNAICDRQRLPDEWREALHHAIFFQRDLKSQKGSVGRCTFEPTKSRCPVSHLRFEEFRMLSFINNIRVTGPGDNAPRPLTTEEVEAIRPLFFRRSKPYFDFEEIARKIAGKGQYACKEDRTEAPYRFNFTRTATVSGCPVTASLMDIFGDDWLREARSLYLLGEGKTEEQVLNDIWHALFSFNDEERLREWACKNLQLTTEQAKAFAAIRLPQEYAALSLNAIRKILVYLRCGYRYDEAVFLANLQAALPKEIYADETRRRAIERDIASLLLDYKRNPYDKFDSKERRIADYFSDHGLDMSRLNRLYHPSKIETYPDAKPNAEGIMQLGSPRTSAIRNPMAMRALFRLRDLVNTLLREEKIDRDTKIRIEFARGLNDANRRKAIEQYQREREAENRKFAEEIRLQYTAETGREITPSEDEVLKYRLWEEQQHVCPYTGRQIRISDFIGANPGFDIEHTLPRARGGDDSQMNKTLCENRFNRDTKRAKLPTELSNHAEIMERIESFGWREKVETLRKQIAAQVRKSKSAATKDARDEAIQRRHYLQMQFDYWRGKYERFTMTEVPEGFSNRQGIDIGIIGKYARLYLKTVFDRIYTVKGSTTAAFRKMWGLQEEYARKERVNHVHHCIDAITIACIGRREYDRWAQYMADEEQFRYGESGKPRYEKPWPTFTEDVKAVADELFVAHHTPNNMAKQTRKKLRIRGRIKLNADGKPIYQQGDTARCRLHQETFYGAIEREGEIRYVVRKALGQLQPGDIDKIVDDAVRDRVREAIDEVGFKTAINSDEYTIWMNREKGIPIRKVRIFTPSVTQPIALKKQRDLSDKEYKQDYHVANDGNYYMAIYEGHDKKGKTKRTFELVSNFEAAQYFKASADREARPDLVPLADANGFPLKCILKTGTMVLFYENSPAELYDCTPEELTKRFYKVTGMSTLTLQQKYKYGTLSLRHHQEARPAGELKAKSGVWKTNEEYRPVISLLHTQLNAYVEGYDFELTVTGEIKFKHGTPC

[3] = test system: T3, OMNI-51 (Bacteroides coagulans); conditions: TXTL; PAM NRRAAA
T3 sequence: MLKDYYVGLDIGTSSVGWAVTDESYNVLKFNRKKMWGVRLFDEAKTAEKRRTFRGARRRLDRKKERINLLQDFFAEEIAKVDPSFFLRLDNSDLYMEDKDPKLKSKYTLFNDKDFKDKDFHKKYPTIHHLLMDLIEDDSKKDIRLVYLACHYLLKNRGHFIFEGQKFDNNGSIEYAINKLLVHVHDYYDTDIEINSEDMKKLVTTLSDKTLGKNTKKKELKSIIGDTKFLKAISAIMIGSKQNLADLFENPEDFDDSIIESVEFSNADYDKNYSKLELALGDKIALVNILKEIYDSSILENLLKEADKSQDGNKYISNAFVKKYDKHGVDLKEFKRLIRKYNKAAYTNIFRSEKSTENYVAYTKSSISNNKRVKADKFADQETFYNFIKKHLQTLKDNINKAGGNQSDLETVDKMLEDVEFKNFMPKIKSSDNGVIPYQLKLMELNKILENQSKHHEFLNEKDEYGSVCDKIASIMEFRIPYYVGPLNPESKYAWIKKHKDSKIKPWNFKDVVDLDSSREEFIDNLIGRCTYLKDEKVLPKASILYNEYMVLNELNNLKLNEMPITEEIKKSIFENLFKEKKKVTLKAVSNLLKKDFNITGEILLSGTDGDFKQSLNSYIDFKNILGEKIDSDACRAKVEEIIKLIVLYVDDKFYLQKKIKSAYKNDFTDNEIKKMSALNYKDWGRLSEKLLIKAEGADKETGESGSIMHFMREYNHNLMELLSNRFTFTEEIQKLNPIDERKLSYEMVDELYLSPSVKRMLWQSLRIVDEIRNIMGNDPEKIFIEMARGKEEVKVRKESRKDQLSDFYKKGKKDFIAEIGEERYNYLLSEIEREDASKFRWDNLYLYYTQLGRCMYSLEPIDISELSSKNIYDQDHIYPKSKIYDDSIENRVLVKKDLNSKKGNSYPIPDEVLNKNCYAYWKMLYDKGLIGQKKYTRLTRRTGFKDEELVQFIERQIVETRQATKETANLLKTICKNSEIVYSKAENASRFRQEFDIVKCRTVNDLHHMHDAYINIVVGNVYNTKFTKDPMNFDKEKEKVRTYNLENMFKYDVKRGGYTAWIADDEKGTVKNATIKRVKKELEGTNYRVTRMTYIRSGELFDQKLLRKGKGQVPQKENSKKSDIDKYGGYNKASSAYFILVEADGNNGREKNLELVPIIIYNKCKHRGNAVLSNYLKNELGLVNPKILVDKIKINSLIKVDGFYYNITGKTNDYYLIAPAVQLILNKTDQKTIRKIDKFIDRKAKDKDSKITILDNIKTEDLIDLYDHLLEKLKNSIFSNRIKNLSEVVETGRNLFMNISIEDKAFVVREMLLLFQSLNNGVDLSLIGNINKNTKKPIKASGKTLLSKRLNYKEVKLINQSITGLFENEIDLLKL

[4] = test system: T4, OMNI-52 (Butyrivibrio sp. NC3005); conditions: TXTL; PAM NRRADT
T4 sequence: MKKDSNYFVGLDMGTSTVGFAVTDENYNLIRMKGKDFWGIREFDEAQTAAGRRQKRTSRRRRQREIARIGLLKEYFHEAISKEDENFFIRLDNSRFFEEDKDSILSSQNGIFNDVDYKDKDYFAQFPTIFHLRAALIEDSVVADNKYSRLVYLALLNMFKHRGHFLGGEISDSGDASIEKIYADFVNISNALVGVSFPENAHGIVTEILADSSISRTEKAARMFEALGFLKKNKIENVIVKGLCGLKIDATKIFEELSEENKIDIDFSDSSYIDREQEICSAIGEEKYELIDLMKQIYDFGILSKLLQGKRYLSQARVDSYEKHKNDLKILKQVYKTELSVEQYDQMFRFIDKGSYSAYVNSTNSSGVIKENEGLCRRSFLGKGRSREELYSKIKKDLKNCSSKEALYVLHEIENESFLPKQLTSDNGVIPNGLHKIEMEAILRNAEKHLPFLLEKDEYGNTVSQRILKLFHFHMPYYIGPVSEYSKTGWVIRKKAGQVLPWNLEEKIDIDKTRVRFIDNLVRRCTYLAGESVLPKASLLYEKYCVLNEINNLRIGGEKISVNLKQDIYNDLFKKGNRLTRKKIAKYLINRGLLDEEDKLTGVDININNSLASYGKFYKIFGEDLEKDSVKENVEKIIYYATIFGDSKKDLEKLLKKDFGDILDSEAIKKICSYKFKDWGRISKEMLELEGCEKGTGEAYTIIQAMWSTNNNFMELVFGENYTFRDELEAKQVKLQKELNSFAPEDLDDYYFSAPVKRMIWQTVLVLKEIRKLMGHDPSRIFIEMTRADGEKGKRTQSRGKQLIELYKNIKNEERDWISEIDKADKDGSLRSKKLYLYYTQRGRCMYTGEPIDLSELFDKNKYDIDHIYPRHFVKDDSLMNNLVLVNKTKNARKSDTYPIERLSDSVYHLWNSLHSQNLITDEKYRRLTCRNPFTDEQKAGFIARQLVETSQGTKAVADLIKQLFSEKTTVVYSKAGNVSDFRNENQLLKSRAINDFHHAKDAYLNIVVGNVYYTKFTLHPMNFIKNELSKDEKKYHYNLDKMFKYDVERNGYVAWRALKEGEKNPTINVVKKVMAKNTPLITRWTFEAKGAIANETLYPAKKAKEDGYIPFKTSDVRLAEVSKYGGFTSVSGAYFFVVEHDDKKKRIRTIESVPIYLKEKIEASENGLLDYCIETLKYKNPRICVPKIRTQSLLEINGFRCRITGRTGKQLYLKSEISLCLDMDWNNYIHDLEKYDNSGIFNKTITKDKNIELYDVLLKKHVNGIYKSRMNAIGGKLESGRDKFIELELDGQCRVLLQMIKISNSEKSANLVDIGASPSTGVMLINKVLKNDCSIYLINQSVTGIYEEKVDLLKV

## GGAAGAGCAGAGCCUUGGUCUCGUUGCGGCUUGACCGCGAAAGCGGUCUGGCUGUUAACAAGCUAGAUAUGCACCAAAUAAGACAGCUCCUCCGGGGGCUGUUUUUU / GGAAGAGCAGAGCCTTGGTCTCNNNNNNNN / NNNNNNNNGAGACCAAGGCTCTGCTCTTCC [OMNI-35 T2 sgRNA V1 ; pbPOS T2 protospacer 8N PAM library]
[1]
  activity (1-depletion score): 0.97

## GGAAGAGCAGAGCCUUGGUCUCGUUGUGGUUUGAUGUAGAAAUACAUCUUACCACAAUAAGGCUAUAUGCCGAAGGUUUUCAACCUACCGUCUCCGCGUAUUCCGUGGAGACUUUUUU / GGAAGAGCAGAGCCTTGGTCTCNNNNNNNN / NNNNNNNNGAGACCAAGGCTCTGCTCTTCC [OMNI-34 T2 sgRNA V1 ; pbPOS T2 protospacer 8N PAM library]
[2]
  activity (1-depletion score): 0.82

## GGAAGAGCAGAGCCUUGGUCUCGUUUGAGAGUUAUGGAAACAUGACAGAGUUCAAAUAAAAAUUUAUUCAAACCGCCUAUUUAAUUAUAGGCCGCAGAUGUUCUGCACUAUGCUUGCAAGGUUGCAAGCUUUUUU / GGAAGAGCAGAGCCTTGGTCTCNNNNNNNN / NNNNNNNNGAGACCAAGGCTCTGCTCTTCC [OMNI-51 T2 sgRNA V1 ; pbPOS T2 protospacer 8N PAM library]
[3]
  activity (1-depletion score): 1

## GGAAGAGCAGAGCCUUGGUCUCGUUUGAGAGCUUUGGAAACAAAGCGAGUGCAAAUAAGGUUUUACCGGAAUCGUCUUUAUUAAGAACCGCAUGGUGCGGAUUAUUUAGAAGCCAUUUAGAUGGCUUCUAUUUU / GGAAGAGCAGAGCCTTGGTCTCNNNNNNNN / NNNNNNNNGAGACCAAGGCTCTGCTCTTCC [OMNI-52 T2 sgRNA V1 ; pbPOS T2 protospacer 8N PAM library]
[4]
  activity (1-depletion score): 1
